In the assay the target is IL-2Rα (on CTLL2 cells) (UniProt P01590). As to the kind of experiment: cell-based or functional assay.
IL-2Rα (on CTLL2 cells), sequence (P01590 22-268 limits assumed): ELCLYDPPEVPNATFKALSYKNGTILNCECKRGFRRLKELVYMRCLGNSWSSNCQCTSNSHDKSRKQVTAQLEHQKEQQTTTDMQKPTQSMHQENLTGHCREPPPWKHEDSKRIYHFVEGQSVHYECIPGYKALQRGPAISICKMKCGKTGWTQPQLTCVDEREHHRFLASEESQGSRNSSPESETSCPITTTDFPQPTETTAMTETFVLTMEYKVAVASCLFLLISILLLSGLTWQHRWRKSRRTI

“HSA-IL-2-T3A/C125S-R38S/F42A/Y45A/E62A (SEQ ID NO: 127)” came in with an EC50 in the CTLL2 cell-based activity assay of 76 nM.
In turn, “IgG1FC (with LALA and Knob)-IL-2-T3A/C125S-R38S/F42A/Y45A/A73T (SEQ ID NO: 135) paired with Fc hole (SEQ ID NO: 194) (from UniProt P0DOX5 223-449) (Fc fusion)” had an EC50 in the CTLL2 cell-based activity assay of 60 nM.
The figure for “IgG1FC (with LALA and Knob)-IL-2-T3A/C125S-R38S/F42A/Y45A/E62A (SEQ ID NO: 132) paired with Fc hole (SEQ ID NO: 194) (from UniProt P0DOX5 223-449) (Fc fusion)” is 60 nM.
The figure for “HSA-IL-2-T3A/C125S-F42A/Y45A/L72G (SEQ ID NO: 126)” is 77 nM.

The record behind these values is patent publication US20210260163A1.
